experiment: soluble on expression in E. coli; label from the status in PepcDB or PDB records

Row | Sequence | soluble on expression in E. coli
1 | MGHFSEKSGSLILRRSLFIVDAIYLKKFRKKTGLKQKEFALSSGLTLKSLRNYEQGKRKLTLEKYQEIKSHFGYLVENDSSRLQVMIDYVRITLKDVRDLEFFCRNFLHCAFKEFQPFESKLMNYNHLWKRGDIWIFDFADKHETGNFQITVQLSGRGCRQLELLMETEKFTWHDWLSYLRNSYRDDMNVTRFDIAIDELYLGKDRENEQFHLSDMISKYYRHELDFESLRTWNYIGGGSLNFSDMEEIEQNRQGISLYFGSRQSEMYFNFYEKRYEIAKQEGITVEEALEIFELWNRYEIRLSQSKANAAVDEFISGVPIGEISRGLIVSKIDVYDGKNEYGSFQADRKWQLMFGGVEPLKFVTKPEAYSIERTLRWLSDSVSPSLAMIREYDMIVDGDYLQTILNSGEVNERGEKILDSIKASLGIL | not soluble
2 | MAHHHHHHMTFSVKGGSYSSSHPSPAMHPYVSPSLLPQSHGQQAPPSFSLGDEQYVGVPKRVGVDPTKYKTTICRNWEQTGTCAFRGCTFAHGVEELRAPLRPDGHTPVLRPQHISPGSTPPLRASQPPPPPSSGHYTLEQLLDMLYKEVLHQRELVTVHVEANTTLEGMLRREQAQHDASKKQLEEKTQQCELFARELFARNQQLRKAADSSPEIKELLDQWETQLASFSEADVKKDDVFHTATATSSTDDGGDSGKEYESARIEELLRALQR | not soluble
3 | SEVLRPQLIRIDGRNYRKNPVQEQTYQHEEDEEDFYQGSMECADEPCDAYEVEQTPQGFRSTLRAPSLLYKHIVGKRGDTRKKIEMETKTSISIPKPGQDGEIVITGQHRNGVISARTRIDVLLDTFRRKQPFTHFLAFFLNEVEVQEGFLRFQEEVLAKCSMDHGVDSSIFQNPKKLHLTIGMLVLLSEEEIQQTCEMLQQCKEEFINDISGGKPLEVEMAGIEYMNDDPGMVDVLYAKVHMKDGSNRLQELVDRVLERFQASGLIVKEWNSVKLHATVMNTLFRKDPNAEGRYNLYTAEGKYIFKERESFDGRNILKLFENFYFGSLKLNSIHISQRFTVDSFGNYASCGQIDFS | soluble
4 | QLNQILRAANLHSFAVANLRQVEHATRPTKTMSAGLTIINVPAFYSSQHQLQKQYWTQLQHLIKQTKPTTDLILNFAANTGGSSAPMIAGLAAIIPDGTIYTGITNHHRNRPRMMYHGRITGGLGQDDVNFSQPTAAHFRHIYAIIGNQTASAAEVTIMALKRNPHVTLVGRSSAGYTSLNGGVFLNTAVAVMTIGTLKATVKIHGQQYFNNQPLKPDIPTLYQPLAPLQLGQSPHLDADFLSELRTIMKHYH | not soluble
5 | SVGTSCIPGMAIPHNPLDSCRWYVSTRTCGVGPRLATQEMKARCCRQLEAIPAYCRCEAVRILMDGVVTSSGQHEGRLLQDLPGCPRQVQRAFAPKLVTEVECNLATIHGGPFCLSLLGAGE | soluble
6 | MGSDKIHHHHHHMSYDLPRLTPDKDFKVPSACGVSGIMNTSGKRFSGSVIVESMALMRERGNGLGAGYAAYGIYPELKDLYCFHMLYDSDLDKKNAEEYIKDHYEIIESEPIPTRKNPHIKEVHILWRYFLKPKFIPEDMSEEDFVVSTVMFINEKINGAFVMSSGKNMGVFKGVGFPEDIADFYRIDEYKGYIWTAHNRFPTNTVGWWGGAHPFGILDWTVVHNGEISSYGINRRFLEAYGYKCTLMTDTEVVAYLVDLFMRRFGYSPQLTAKILAAPLWKDIDLMPEEERKLYTALRMNYGGALLNGPFAIIVANNNMMMGLNDRIKLRPLVAATKDDFLYIASEESAIRVVCPEPDEVWAPKAGDPVVGVLKSARKTQVVLEGENG | not soluble
7 | MSLKSKEKLFIANVADSNLNEADKDKAKNEIAKLNASQVVATTLASSVRETEKQEKIETDICNENAISESKLDGIDDLEFVDENYYISPSLDTLATLSKYEIQKVENLVVGNKQYGKIEFLDPVDLSDIPLGSICDDLVVFQPMSVLLYNNSTNVPEKGKGLNVRARISCYNCYPLDKSTRKPIKDPNHRIMERYSEKLKKIPHTHFESYDPASGTYCFTVDHALEGHHHHHH | soluble
8 | MEKQQDLPFPYEFRELNPEEDKLVKANLGAFPTTYVKLGPKGYMVYRPYLKDAANIYNMPLRPTDVFVASYQRSGTTMTQELVWLIENDLNFEAAKTYMSLRYIYLDGFMIYDPEKQEEYNDILPNPENLDMERYLGLLEYSSRPGSSLLAAVPPTEKRFVKTHLPLSLMPPNMLDTVKMVYLARDPRDVAVSSFHHARLLYLLNKQSNFKDFWEMFHRGLYTLTPYFEHVKEAWAKRHDPNMLFLFYEDYLKDLPGCIARIADFLGKKLSEEQIQRLCEHLNFEKFKNNGAVNMEDYREIGILADGEHFIRKGKAGCWRDYFDEEMTKQAEKWIKDNLKDTDLRYPNMEL | soluble
9 | MSTPVLELRGIVKTFGATRALDGASLRVAAGSVHGLVGENGAGKSTLIKVLAGIHRPDAGSLLLDGQPHGHFSPRQVERLGIGFIHQERLLPARFTVGEALFFGHERRFGPLLDRRSQQREAARLLDDYFGLRLPANALIGELSSAEQQMVQIVRALLIKPRVLVFDEPSVALVQREVERLLRIVQRLRDDGLAIVYISHYLQEIEALCDRVTVLRNGRDVAEVSPRNTSLEQITRLMVNREVGELYPKVAVPAGALLLDVRGLGRARAYQGIDLQVRRGEIVGLTGLVGSGAKELLRSLFGLAPPDSGEVRLDGQPLSLRSPREAVAQGVALMPEERRRQGVALDLSVQENTTLAALSRFVRLGLLSPARERHTTLELIERLRIKAHGAHAKVRQLSGGNQQKVALAKWFARCSSLYLLDEPSVGIDVGAKVEIYRLIGELVKEGAGVLILSSDLPELIGLCDRIHVMHRGAIAARFAAGEANSDRLLAVATGAQRAQNEERPFYAYAIAI | not soluble
10 | MAHHHHHHMESPEADEAFSKSLDAKVDDLFARIPLPQDPMKVALALTDEEAREEAATELVKEAVREMYWRKLGAKQAEELRLKKAQEKLQKQGAIQYFEERREEERLREHENTQFAAQPLAVEPQSPVGKGVTASPLQNLDSTLSAEELRKELAAMKANVSRLEELLRYKT | soluble
11 | SNGEEEFFDAVTGFDSDNSSGEFSEANQKVTGMIDLDTSKNNRIGKTGERPSQENGIQKHRTSLPAPMFSRSDFSVWTILKKCVGLELSKITMPIAFNEPLSFLQRITEYMEHVYLIHRASCQPQPLERMQSVAAFAVSAVASQWERTGKPFNPLLGETYELIREDLGFRFISEQVSHHPPISAFHSEGLNHDFLFHGSIYPKLKFWGKSVEAEPRGTITLELLKHNEAYTWTNPTCCVHNVIIGKLWIEQYGTVEILNHRTGHKCVLHFKPCGLFGKELHKVEGHIQDKNKKKLFMIYGKWTECLWGIDPVSYESFKKQERRGDHLRKAKLDEDSGKADSDVADDVPVAQETVQVIPGSKLLWRINTRPPNSAQMYNFTSFTVSLNELETGMEKTLPPTDCRLRPDIRGMENGNMDLASQEKERLEEKQREARRERAKEEAEWQTRWFYPGNNPYTGTPDWLYAGDYFERNFSDCPDIY | soluble
12 | SSEWMKKGPLEWQDYIYKEVRVTASEKNEYKGWVLTTDPVSANIVLVNFLEDGSMSVTGIMGHAVQTVETMNEGDHRVREKLMHLF | soluble
13 | MSLTNLHYTVKSLMRFKDKTVIISGGGNSAIDWANELEPIAKKVYLTYRKEALNGHEAQISQLLSSSATCLFHTTISKLIARDNKEVIEQVELTDHQTGEVTNLAVDEVIINHGYERDKSLLDQSEVTLDRIDDYYIAGTPTSATSVGGIYAAGDVLKHEGKLHLIAGAFQDAANAVNQAKQWIEPEAHQSAMVSSHNHVFKERNRELIRQMLKEGHHHHHH | not soluble
14 | MSLAPAEWVALNYVPFAERSLEVVVDLYQKTACHKAVVNEKVLQNIIKTLRVPLSLKYSCPSESTWKLAVSSLLRVLSIGLPVARQHASSGKFDSMWPELANTFEDFLFTKSIPPDNLSIQEFQRNENIDVEVVQLISNEILPYANFIPKEFVGQIMTMLNKGSIHSQSSSFTEAEIDIRLREEFSKMCFETLLQFSFSNKVTTPQEGYISRMALSVLLKRSQDVLHRYIEDERLSGKCPLPRQQVTEIIFVLKAVSTLIDSLKKTQPENVDGNTWAQVIALYPTLVECITCSSSEVCSALKEALVPFKDFMQPPASRVQNGEEGHHHHHH | not soluble
15 | STQEQTPQICVVGSGPAGFYTAQHLLKHHSRAHVDIYEKQLVPFGLVRFGVAPDHPEVKNVINTFTQTARSDRCAFYGNVEVGRDVTVQELQDAYHAVVLSYGAEDHQALDIPGEELPGVFSARAFVGWYNGLPENRELAPDLSCDTAVILGQGNVALDVARILLTPPDHLEKTDITEAALGALRQSRVKTVWIVGRRGPLQVAFTIKELREMIQLPGTRPMLDPADFLGLQDRIKEAARPRKRLMELLLRTATEKPGVEEAARRASASRAWGLRFFRSPQQVLPSPDGRRAAGIRLAVTRLEGIGEATRAVPTGDVEDLPCGLVLSSIGYKSRPIDPSVPFDPKLGVVPNMEGRVVDVPGLYCSGWVKRGPTGVITTTMTDSFLTGQILLQDLKAGHLPSGPRPGSAFIKALLDSRGVWPVSFSDWEKLDAEEVSRGQASGKPREKLLDPQEMLRLLGH | soluble
16 | VRLSNPDILLNIHVSHEEVTLSLDSSGDSLHKRGYRVAETTAPLNEVLAAGILLKAGWDGSTDLIDPMCGSGTFLIEAALIACNIAPGIYRRGFAFQRWADFDLDLYDELFHDDSAERVFDHIIYGSDILPQAVAAARSNVERAGLGRYISLSVLPMQQRPKPESKAMLVMNPPYGERIKVEDMQQLYTMIGERLKHNYAGCSAWILAFKPEHFNHIGLRQSHREKLMNGALECELRGYELFEGRR | not soluble
17 | MGSDKIHHHHHHMEKIIITATAESIEQVKELLVAGVDRIYVGEADHALRIPTNFTYDELREIAELVHSAGKELTVAANALMHQDMMDNIKPFMELMREIKVDYLVVGDTGIFYINKRDGYNFKLIYDTSVFVTSSRQINFWKDHGAVEAVLAREIPSEELFDIAKNLEMPAEILVYGASVIHHSKRTLLQNYYNFTKADETDLSRGRGLFLAEPSDPDSHYSIFEDKHGTHIFINNDIDMMTKLSELDEHGYHNWKLDGIYCPGQNFVEIVKLFVQARDLIEKGEFTYDQAFLLDEQVRKLHPAERGLDTGFYEFDRNKVK | not soluble
18 | MARCSVCGAPAVAYIRYQRRYLCRDHYLEFVESKVERAIMRHRLVGKGDRVLAAVSGGKDSSTLLAVLSRLSRRIGFHVVALYIHLGIYEYSEKSREASIRLASQLDVPLIVFDLNEVLGAGIPELAKASKRPPCSVCGMVKRYVINAAAVELGVDAVALGHNADDIAVYNLKSFLNQDLEAISKLGVKTESIPGVAVGRVRPLYYVYEKESFLYSLLAGLPFLHEEC | not soluble
19 | MKDYRYALPAMMSVRKGESRYFNRGDQHLMNEILARVRAEGKIRLRDIDKKNKESLGNWWNTGPGRRAFEQLYMQGDLMICERNGMEKVYDLTERCLPENIDLSLPTLYEYAQYLFNNTLRAHGAFTWKQLVHLKKNDLKETMRVVLKEQIDAGVVSAIKLADGQNLYVDVTAIEQQLDTDFGLKILSPFDNSLIHRDRLTSLFEFDYRIECYLPAAKRVFGYFCLPILYQNELVGRIDCKAHRTVKELEVISLHLEKTVKDKEHFFFELDQELKRFAAFNQCSTVNDKVVKLIRSKLLEHHHHHH | not soluble
20 | MGSDKIHHHHHHMSLQFDHETLGQRVLFGSGEAAQNLAAEISRLDAKNVMVVAGDFELPMARQVAADIDVKVWHSNVVMHVPIETAEEARSVAKENDIDVVVCVGGGSTTGLAKAIAMTTALPIIAVPTTYAGSEATNVWGLTEAARKTTGVDNKVLPVTVIYDSALTMSLPVEMSVASGLNGLAHCIDSLWGPKADPINAAMAAEGIRALSAGLPKIVADAQDVDGRDEALYGAYLAAVSFASAGSGLHHKICHVLGGTFNLPHAQTHATVLPYVLAFNAPYAPQAEQRAAAAFGSATALEGLQQLRAQVGAPQRLSDYGFTAAGIPEAVEIILEKVPANNPRTVTEENLTALLTTALNGDDPATLN | not soluble

Source: the DeepSol protein solubility set
